Reference: the Human Domainome abundance scans (Beltran et al. 2025)

B1: Gamma-crystallin S, residues 96 to 176; numbered along this chain, P22914 (parent)
chain: IQIFEKGDFSGQMYETTEDCPSIMEQFHMREIHSCKVLEGVWIFYELPNYRGRQYLLDKKEYRKPIDWGAASPAVQSFRRI

Variants of: B1
Assay: abundance fitness (aPCA) (normalised: wild type 0, dead -1); higher = more abundant; growth selection in yeast, the domain comes from the species named
Conditions: Homo sapiens

Abundance fitness of substitutions, site by site:
L56: T -0.04 | V -0.133 | D 0.309 | G 0.064 | P 0.166 | E 0.115 | C -0.136 | M -0.228 | F 0.04 | Q -0.052 | S -0.031 | W 0.047 | R 0.191 | K -0.161
D58: E 0.085 | F -0.099 | P -0.342 | S 0.014 | A 0.04 | K 0.012 | T 0.008 | W -0.461 | V 0.023 | C 0.054 | R 0.04 | G 0.031 | Y -0.067
N49: V -0.198 | K -0.04 | T -0.167 | A -0.018 | P -0.591 | L -0.063 | R -0.07 | W 0.004 | F -0.009 | C -0.078 | H -0.004 | D 0.004 | E 0.021 | G 0.011 | M -0.001 | Y -0.044
P65: G -0.009 | S -0.008 | Y 0.199 | C -0.184 | E -0.004 | V 0.141 | A 0.094 | W -0.024 | R 0.033 | L -0.064 | Q 0.045 | T 0.059 | N -0.284
R53: P -0.169 | D 0.048 | G -0.039 | N -0.168 | K 0.005 | Q 0.073 | W -0.257 | H -0.036 | T -0.018 | A -0.039 | S -0.084 | Y -0.129 | E 0.036 | V -0.018 | C -0.064 | F -0.055 | L -0.059 | I -0.163
D67: Q -0.034 | G -0.098 | K -0.127 | T -0.262 | F -0.036 | S 0.037 | I 0.127 | W 0.053 | Y -0.144 | L -0.321 | R 0.146 | P -0.154 | A 0.149 | E 0.069
W68: M 0.131 | L -0.044 | T 0.089 | A -0.167 | S 0.006 | R -0.169 | E -0.059 | Y -0.425 | C -0.026 | K -0.067 | G -0.139 | P -0.289
Y50: S -0.705 | C -0.047 | T -0.949 | L -0.351 | N -0.567 | Q -0.356 | A -0.576 | G -0.421 | K -0.884 | W -0.036 | E -0.559 | R -0.685 | H -0.102 | M -0.072 | I -0.851 | P -1.14 | V -1.02 | D -0.823 | F -0.002
I66: T -0.047 | M -0.022 | W 0.011 | Y -0.2 | S 0.061 | C 0.131 | G -0.074 | L -0.008 | R 0.03 | A -0.032 | K -0.432 | E 0.007 | Q 0.185
Y62: P 0.177 | F 0.16 | A -0.099 | M 0.116 | W 0.281 | T -0.174 | H 0.117 | C -0.162 | G -0.075 | N 0.002 | V -0.184 | S -0.129
Y55: S -0.437 | E -0.425 | G -0.529 | V -0.128 | D -0.531 | H 0.218 | W 0.014 | M -0.231 | K -0.352 | R 0.055 | L -0.051 | A -0.152 | F 0.117
G52: C -0.631 | F -0.246 | E -0.949 | D -0.788 | W -1.01 | A -0.741 | P -0.89 | Y -0.95 | Q -1 | V -1.05 | K -0.438 | L -0.805 | R -0.766 | S -0.457 | M -0.912 | T -0.95
L47: T -0.285 | Y 0.019 | V -0.667 | W -0.078
Q54: T 0.044 | P -0.168 | W -0.279 | V -0.045 | L -0.121 | G -0.048 | S 0.017 | H 0.035 | C -0.001 | I -0.045 | R -0.013 | F -0.114 | Y -0.144 | E -0.067 | K -0.07 | N 0.089
G69: K -0.127 | C -0.242 | S 0.071 | R 0.012 | I 0.09 | P -0.294 | W -0.018 | M 0.052 | E 0.006 | V -0.05 | L 0.022 | D -0.155 | Q -0.166
R51: Y -0.166 | N -0.264 | H 0.013 | W -0.138 | E 0.037 | L -0.019 | V -0.026 | Q -0.035 | M 0.049 | A -0.004 | T 0.1 | P -1.03 | G 0.062 | I -0.04 | D 0 | S 0.044 | K 0.008
A70: E -0.004 | T -0.037 | I 0.111 | V -0.003 | F -0.025 | W -0.147 | G 0.108 | M -0.023 | K 0.169 | R 0.104 | Q -0.057 | P 0.042 | H 0.32 | D -0.017
P48: M -0.193 | G -0.147 | T 0.002 | I -0.23 | Q -0.011 | D -0.038 | S -0.1 | H -0.236 | E -0.068 | L -0.32 | Y -0.23 | R -0.067 | C -0.129 | A -0.027 | F -0.388 | K 0.006 | W -0.712 | V -0.104 | N -0.096
L57: C -0.273 | M 0.17 | S 0.171 | V 0.045 | T -0.078 | R -0.288 | A -0.039 | P -0.517 | N -0.526 | G 0.026 | K -0.414 | Q -0.491 | F -0.311
K60: Q 0.064 | S 0.005 | C 0.021 | D -0.251 | L -0.035 | R -0.143 | V -0.242 | A -0.001 | N 0.111 | E -0.049 | I -0.18 | W -0.116 | G 0.017 | P -0.154 | M 0.078
K59: F -0.107 | V 0.119 | E -0.31 | M -0.136 | A 0.012 | H 0.323 | P -0.229 | W -0.084 | C -0.104 | T 0.089 | I 0.026 | G -0.133 | Q -0.022 | D -0.153 | Y -0.077
R63: G 0.092 | Y -0.158 | T -0.102 | W 0.065 | D -0.051 | S -0.022 | P -0.096 | A -0.098 | E -0.032 | F -0.025 | L 0.133 | K -0.093 | V -0.118
E61: N 0.035 | Q -0.05 | V 0.084 | L -0.135 | S -0.358 | M -0.028 | W 0.086 | H -0.205
K64: Q -0.063 | C -0.146 | L -0.07 | A 0.034 | I -0.368 | W -0.24 | D -0.118 | Y -0.026 | R -0.146 | G 0.031 | H -0.372 | V 0.002 | T -0.164 | P -0.215
